{
  "source": "patent US12540945B2",
  "about": "“Probe and method for identifying host cell protein impurities” (Regeneron Pharmaceuticals, Inc., priority 2021, dated 2026)",
  "molecules": {"B1": {"name": "LAL: lysosomal acid lipase; recombinant CHO LAL generated in-house, spiked into PS80 samples (protein, UniProt P38571 77-399, looked up)", "Lysosomal acid …": "GPKPVVFLQHGLLADSSNWVTNLANSSLGFILADAGFDVWMGNSRGNTWSRKHKTLSVSQDEFWAFSYDEMAKYDLPASINFILNKTGQEQVYYVGHSQGTTIGFIAFSQIPELAKRIKMFFALGPVASVAFCTSPMAKLGRLPDHLIKDLFGDKEFLPQSAFLKWLGTHVCTHVILKELCGNLCFLLCGFNERNLNMSRVDVYTTHSPAGTSVQNMLHWSQAVKFQKFQAFDWGSSAKNYFHYNQSYPPTYNVKDMLVPTAVWSGGHDWLADVYDVNILLTQITNLVFHESIPEWEHLDFIWGLDAPWRLYNKIINLMRKYQ", "modifications": "recombinant, CHO-expressed", "notes": "lysosomal acid lipase; recombinant CHO LAL generated in-house, spiked into PS80 samples"}},
  "assay": "Hydrolysis of polysorbate 80 by spiked LAL, oleic acid release by LC-MS",
  "assay_type": "biochemical",
  "conditions": "5 ppm LAL, 0.1% PS80, pH 5.5, after 2 days of incubation",
  "data": [
    {"molecule": "B1", "values": [
      {"measurement": "oleic acid released (hydrolysis of PS80)", "value": 3, "unit": "µg/mL"}
    ]}
  ]
}
